Data set [1] concerns the target T1, AcFur SII E106A;H123A (Acidithiobacillus caldus MTH-04) (UniProt A0A060A2G1).
T1 sequence: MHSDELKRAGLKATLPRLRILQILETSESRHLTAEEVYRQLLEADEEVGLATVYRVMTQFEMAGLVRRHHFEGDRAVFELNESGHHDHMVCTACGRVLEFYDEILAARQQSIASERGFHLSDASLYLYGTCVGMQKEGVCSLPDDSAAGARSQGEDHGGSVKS
Description: EMSA. Particulars: EMSA: 0.4 nM DNA, 0/2/4/8 nM protein, 10 mM Tris-HCl pH 8.0, 100 mM NaCl, 1 mM MnCl2, room temperature, 30 min; 5% native PAGE in 0.5x TBE, EB stain. On the technique in general: Mobility shift assays separate free from complexed probe on a gel.

Data set [2] has as its target T2, AcFur SI H31A;H88A (Acidithiobacillus caldus MTH-04) (UniProt A0A060A2G1).
T2 sequence: T1 sequence with H31A, H88A, A106E, A123H
Kind of data set: EMSA. Particulars: EMSA: 0.4 nM DNA, 0/2/4/8 nM protein, 10 mM Tris-HCl pH 8.0, 100 mM NaCl, 1 mM MnCl2, room temperature, 30 min; 5% native PAGE in 0.5x TBE, EB stain.

Residue numbers refer to the chain shown, from its start.

For the sequence “GCGTAGGACGTCCTTGATAACTGCAACTAAGTTGCATATATTCCGCACGACCACTCCGCGCGTCCCTGGGGAGCTTGACCGGTAAGTCTATTTATTGAATGATAATGATTAGCATTTATATTATTTGGAGAGATTGTCCATGCGTCGTATACCCCTCTGTGCGCTGCTGAGCACCATGCTTGCTTCCAGC (double strand) [feoP promoter]”, the figures for the binding entry in data set [1] and in data set [2] were “binds more weakly” and “no binding”, respectively.
The matching figures for “TTCCACCTGCTCACCTGCGCGGGCCGAGCTCAGGCGGTGGGGGGAAAGGACTTGGGTCATGACGCTCACACTCCCAACGAGTTCGTGGGGACACTATATCATAATGGTAATCATTTGCAATATCAGCCCAAGGGAGGGCCGTCCCGGCGGACGCAGCCGCCGACGCTCAGTCCAGGTCGCCGTGCCTGGGTGTAAAACGC (double strand) [feoABC operator (feoA promoter)]”: “binds more weakly” and “no binding”.

The record behind these values is paper PMC7237784.
